From patent US10280205B2, “Method for treating cancer with an activated T lymphocyte that selectively recognizes a cancer cell consisting of specific peptide” (immatics biotechnologies GmbH, priority 2015, dated 2019)

Each substance was assayed against HLA-A*02:01 (Homo sapiens, UniProt P04439, D140Y/D185E/D98H/E176V/E277Q/G131W/G231S/I119V/I121R/I166T/I218V/L300P/L318F/N151K/N90K/P208A/P217A/Q86G/Q94H/R138H/R169H/T345S) (assay: MHC binding assay: UV-ligand exchange with beta2m ELISA (exchange yield)). Details: binding to HLA-A*02:01, β2m ELISA.
In short: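 Peptide–HLA-A*02:01 complexes formed by UV-induced exchange of a photocleavable ligand for the test peptide. Exchange products diluted 100-fold and captured on streptavidin-coated plates. Stabilized complexes detected with HRP anti-β2m (1 h, 37° C.) and TMB, A450; exchange yield reported.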

Row | Substance | Peptide exchange (MHC class I binding score, peptide exchange yield)
1 | 228 (AMQEYIAVV; listed as Homo sapiens) [compound 228] | “++” (≥20% = ++)
2 | 229 (RLPGPLGTV; listed as Homo sapiens) [compound 229] | “++” (≥20% = ++)
3 | 230 (ILVDWLVEV; listed as Homo sapiens) [compound 230] | “+” (≥10% = +)
4 | 232 (ALLEAQDVELYL; listed as Homo sapiens) [compound 232] | “++” (≥20% = ++)
5 | 234 (ALMEDTGRQML; listed as Homo sapiens) [compound 234] | “++” (≥20% = ++)
6 | 235 (YLNDLHEVLL; listed as Homo sapiens) [compound 235] | “++++” (≥75% = ++++)
7 | 236 (GLLEAKVSL; listed as Homo sapiens) [compound 236] | “+++” (≥50 = +++)
8 | 237 (ALLEASGTLLL; listed as Homo sapiens) [compound 237] | “++++” (≥75% = ++++)
9 | 242 (AIAYILQGV; listed as Homo sapiens) [compound 242] | “++” (≥20% = ++)
10 | 244 (SLFGGTEITI; listed as Homo sapiens) [compound 244] | “+++” (≥50 = +++)
11 | 245 (SMIDDLLGV; listed as Homo sapiens) [compound 245] | “+++” (≥50 = +++)
12 | 248 (FLFPNQYVDV; listed as Homo sapiens) [compound 248] | “+++” (≥50 = +++)
13 | 251 (ALYTGFSILV; listed as Homo sapiens) [compound 251] | “++” (≥20% = ++)
14 | 253 (GLDAATATV; listed as Homo sapiens) [compound 253] | “++” (≥20% = ++)
15 | 254 (TLLAFIMEL; listed as Homo sapiens) [compound 254] | “+++” (≥50 = +++)

Now from value to substance:

Row | Peptide exchange (MHC class I binding score, peptide exchange yield) | Substance
16 | “++” (≥20% = ++) | 227 (ALMNTLLYL; listed as Homo sapiens) [compound 227]
17 | “++” (≥20% = ++) | 231 (FLSPQQPPLLL; listed as Homo sapiens) [compound 231]
18 | “++” (≥20% = ++) | 233 (VLSETLYEL; listed as Homo sapiens) [compound 233]
19 | “+++” (≥50 = +++) | 238 (YLISFQTHI; listed as Homo sapiens) [compound 238]
20 | “+++” (≥50 = +++) | 239 (AAFAGKLLSV; listed as Homo sapiens) [compound 239]
21 | “+++” (≥50 = +++) | 240 (ILLEQAFYL; listed as Homo sapiens) [compound 240]
22 | “+++” (≥50 = +++) | 241 (SLVEVNPAYSV; listed as Homo sapiens) [compound 241]
23 | “+++” (≥50 = +++) | 243 (LLLNELPSV; listed as Homo sapiens) [compound 243]
24 | “+++” (≥50 = +++) | 246 (LLWEVVSQL; listed as Homo sapiens) [compound 246]
25 | “+++” (≥50 = +++) | 249 (LLDGFLVNV; listed as Homo sapiens) [compound 249]
26 | “+++” (≥50 = +++) | 250 (ALSEEGLLVYL; listed as Homo sapiens) [compound 250]
27 | “+++” (≥50 = +++) | 252 (LLIGTDVSL; listed as Homo sapiens) [compound 252]
28 | “+++” (≥50 = +++) | 255 (VLASYNLTV; listed as Homo sapiens) [compound 255]
